{"source": "patent US20020193308A1", "binders": {"B1": {"name": "recombinant UK114 (E.coli-derived, SEQ ID NO:1) (protein)", "chain": "SSLVRRIISTAKAPAAIGPYSQAVLVDRTIYISGQLGMDPASGQLVPGGVVEEAKQALTNIGEILKAAGCDFTNVVKATVLLADINDFSAVNDVYKQYFQSSFPARAAYQVAALPKGGRVEIEAIAVQGPLTTASV"}}, "molecular_target": "polyclonal antibodies (lot RF29), raised in rabbits against natural isolate of UK114", "assay": "competition ELISA: soluble antigen titrated against rabbit antiserum (1:10,000) on plates coated with natural UK114; apparent Ka is the reciprocal of the antigen concentration at the A50 point", "data": [{"binder": "B1", "values": [{"measurement": "Ka", "value": "4.9e+08", "unit": "M⁻¹"}]}]}
